The values below come from patent US20110217282A1 (UNIVERSITY OF MEDICINE AND DENTISTRY OF NEW JERSEY, published 2011).

This assay has as its target T1, YgiT (E. coli, UniProt Q46864 1-131).
T1 construct: YgiT with no tag named, co-expressed with H-MqsR from pET-MqsRYgiT (the operon cloned in pET28a) or induced from pBAD-YgiT in cells; also called YgiT of the H-MqsRYgiT complex; YgiT expressed from pBAD-YgiT
T1 sequence: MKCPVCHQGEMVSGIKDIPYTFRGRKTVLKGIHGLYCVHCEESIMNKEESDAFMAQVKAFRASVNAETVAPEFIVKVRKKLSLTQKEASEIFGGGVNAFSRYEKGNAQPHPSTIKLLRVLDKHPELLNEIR
Put plainly: co-expression and co-purification on Ni-NTA agarose through the tag of H-MqsR.

B1: N-terminal histidine-tagged MqsR (enzyme)
chain: MEKRTPHTRLSQVKKLVNAGQVRTTRSALLNADELGLDFDGMCNVIIGLSESDFYKSMTTYSDHTIWQDVYRPRLVTGQVYLKITVIHDVLIVSFKEK
notes: also called H-MqsR; His-MqsR; not shown: N-terminal histidine tag from pET28a
Regarding B1, the binding result was “binds”.
